Data published in article PMC9584909, “Atomic resolution protein allostery from the multi-state structure of a PDZ domain” (Nature Communications, 2022).

Molecular target: T1, PDZ2 domain of human tyrosine phosphatase 1E (hPTP1E) (human, UniProt Q12923 1361-1456)
T1 construct: PDZ2 domain of human tyrosine phosphatase 1E (hPTP1E); Uniformly 15N- or 15N,13C-enriched for NMR; also called apo PDZ2; holo PDZ2; source: E. coli BL21 (DE3), purified (Ni-NTA, tag cleaved with HRV-3C protease, second Ni-NTA pass); not shown: polyhistidine, N-terminal, cleaved
T1 sequence: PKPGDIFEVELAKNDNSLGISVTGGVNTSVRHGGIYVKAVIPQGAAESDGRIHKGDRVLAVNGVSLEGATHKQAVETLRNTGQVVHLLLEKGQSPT
Assay: NMR titration; [1H,15N]-HSQC of uniformly 15N-enriched PDZ2, free and with the peptide in twofold excess; 298 K; 150 mM sodium chloride, 50 mM phosphate buffer pH 6.8; chemical shift perturbation
Details: both partners purified

binding result: binds
B1: C-terminal eight-residue peptide derived from the Ras-associated guanine nucleotide exchange factor 2 (RA-GEF2) (peptide)
peptide: Ac-ENEQVSAV-OH
notes: the eight C-terminal residues of Ras-associated / Rap guanine nucleotide exchange factor 2 (RA-GEF2); also called RA-GEF2 peptide; source: synthetic peptide, bought: BACHEM
